Source: patent US20220016127A1, “COMPOSITIONS AND METHODS FOR INDUCING APPENDAGE AND LIMB REGENERATION” (priority 2020, published 2022)

System: Aurelia ephyra
Assay: Arm regeneration induction in amputated Aurelia ephyrae
Assay type: in vivo, Aurelia aurita
Details: amputated ephyrae, factor added to artificial seawater upon amputation
Experimental: Amputation. Strobilated ephyrae were fed daily with rotifers (Brachionus plicatilis) until amputation time. 2-3 days old ephyrae were anesthetized in 400 μM menthol and amputated using a razor blade mounted on an x-acto knife handle. After amputation, ephyrae were let to recover in bubbler cones (FIG. 7). Regeneration was assessed at various times until 1-2 weeks after amputation, before onset of maturation to medusa.
Inducing regeneration. Experimental setup. 0.5-1 L sand settling cones were repurposed as jellyfish aquaria (Nalgene Imhoff; FIG. 7). Each cone was equipped with an airline from a Tetra Whisper air pump 100 to create a gentle vertical current (˜1 bubble/sec, see FIG. 30). The conical geometry eliminates stagnant spots, where the ephyrae could get stuck. In this “bubbler cone” setup, the ephyrae were continually in water current either in the upward air bubble-generated current or the downward self-generated current. 500 mL artificial seawater and 30 ephyrae were placed in each cone to avoid crowding and fouling. Artificial seawater was changed every week. Nutrients. […]
Amputation. […] Regeneration was assessed at various times for 1-2 weeks after amputation, before onset of maturation to medusa. […]

B1: Egf: protein tested in the screen (hEGF recombinant, Sigma E9644) (protein, UniProt P01133 23-1207, looked up)
Pro-epidermal growth factor: PQHWSCPEGTLAGNGNSTCVGPAPFLIFSHGNSIFRIDTEGTNYEQLVVDAGVSVIMDFHYNEKRIYWVDLERQLLQRVFLNGSRQERVCNIEKNVSGMAINWINEEVIWSNQQEGIITVTDMKGNNSHILLSALKYPANVAVDPVERFIFWSSEVAGSLYRADLDGVGVKALLETSEKITAVSLDVLDKRLFWIQYNREGSNSLICSCDYDGGSVHISKHPTQHNLFAMSLFGDRIFYSTWKMKTIWIANKHTGKDMVRINLHSSFVPLGELKVVHPLAQPKAEDDTWEPEQKLCKLRKGNCSSTVCGQDLQSHLCMCAEGYALSRDRKYCEDVNECAFWNHGCTLGCKNTPGSYYCTCPVGFVLLPDGKRCHQLVSCPRNVSECSHDCVLTSEGPLCFCPEGSVLERDGKTCSGCSSPDNGGCSQLCVPLSPVSWECDCFPGYDLQLDEKSCAASGPQPFLLFANSQDIRHMHFDGTDYGTLLSQQMGMVYALDHDPVENKIYFAHTALKWIERANMDGSQRERLIEEGVDVPEGLAVDWIGRRFYWTDRGKSLIGRSDLNGKRSKIITKENISQPRGIAVHPMAKRLFWTDTGINPRIESSSLQGLGRLVIASSDLIWPSGITIDFLTDKLYWCDAKQSVIEMANLDGSKRRRLTQNDVGHPFAVAVFEDYVWFSDWAMPSVMRVNKRTGKDRVRLQGSMLKPSSLVVVHPLAKPGADPCLYQNGGCEHICKKRLGTAWCSCREGFMKASDGKTCLALDGHQLLAGGEVDLKNQVTPLDILSKTRVSEDNITESQHMLVAEIMVSDQDDCAPVGCSMYARCISEGEDATCQCLKGFAGDGKLCSDIDECEMGVPVCPPASSKCINTEGGYVCRCSEGYQGDGIHCLDIDECQLGEHSCGENASCTNTEGGYTCMCAGRLSEPGLICPDSTPPPHLREDDHHYSVRNSDSECPLSHDGYCLHDGVCMYIEALDKYACNCVVGYIGERCQYRDLKWWELRHAGHGQQQKVIVVAVCVVVLVMLLLLSLWGAHYYRTQKLLSKNPKNPYEESSRDVRSRRPADTEDGMSSCPQPWFVVIKEHQDLKNGGQPVAGEDGQAADGSMQPTSWRQEPQLCGMGTEQGCWIPVSSDKGSCPQVMERSFHMPSYGTQTLEGGVEKPHSLLSANPLWQQRALDPPHQMELTQ
modifications: Pro-epidermal growth factor
- effect on arm regeneration / regeneration frequency (in words): no effect
